Results: the supplement of paper PMC10724198
± gives the standard deviation of the averaged measurements.

Key:
Saccharomyces cerevisiae [1] = experiment: protein stability index of tFT-peptide fusion (C-terminal peptide) (PSI (0-1 scale)); higher = more stable (slower turnover); conditions: genetic background: wild type; temperature: 30 C
Saccharomyces cerevisiae [2] = experiment: as above
Method: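 MPS profiling in S. cerevisiae of the tFT-X12 degron library: putative degron peptides plus stable controls, 12 aa, fused to the C-terminus of a sfGFP-mCherry timer. Cells are FACS-sorted into 8 mCherry/sfGFP bins and deep-sequenced. PSI runs from 0 (unstable) to 1 (stable). Backgrounds are wild type, das1Δ and doa10Δ at 30 °C, and wild type, das1Δ, cdc34-1 and cdc53-1 at 37 °C; 2-3 technical replicates each.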

[3] = genetic background: cdc34-1, temperature: 37 C
[4] = genetic background: cdc53-1, temperature: 37 C
[5] = genetic background: das1 deletion, temperature: 30 C
[6] = genetic background: das1 deletion, temperature: 37 C
[7] = genetic background: doa10 deletion, temperature: 30 C
[8] = genetic background: wild type, temperature: 30 C
[9] = genetic background: wild type, temperature: 37 C
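Further: PSI is a weighted mean of sequencing reads over stability bins, variants kept only with over 10 reads, mCherry proximal and sfGFP distal, peptide attached via GGGS linker.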

HRHCVSSYQKVS
protein stability index (Saccharomyces cerevisiae [1]): 0.401 ± 0.054
protein stability index (Saccharomyces cerevisiae [2]; [3]): 0.662 ± 0.08
protein stability index (Saccharomyces cerevisiae [2]; [4]): 0.708 ± 0.013
protein stability index (Saccharomyces cerevisiae [2]; [5]): 0.648 ± 0.028
protein stability index (Saccharomyces cerevisiae [2]; [6]): 0.715 ± 0.0042
protein stability index (Saccharomyces cerevisiae [2]; [7]): 0.242 ± 0.0074
protein stability index (Saccharomyces cerevisiae [2]; [8]): 0.285 ± 0.027
protein stability index (Saccharomyces cerevisiae [2]; [9]): 0.556 ± 0.01

HRNILSIIIKNL
protein stability index (Saccharomyces cerevisiae [1]): 0.109 ± 0.046
protein stability index (Saccharomyces cerevisiae [2]; [3]): 0.541 ± 0.083
protein stability index (Saccharomyces cerevisiae [2]; [4]): 0.681 ± 0.027
protein stability index (Saccharomyces cerevisiae [2]; [5]): 0.642 ± 0.057
protein stability index (Saccharomyces cerevisiae [2]; [6]): 0.685 ± 0.029
protein stability index (Saccharomyces cerevisiae [2]; [7]): 0.0819 ± 0.039
protein stability index (Saccharomyces cerevisiae [2]; [8]): 0.0771 ± 0.015
protein stability index (Saccharomyces cerevisiae [2]; [9]): 0.1025 ± 0.00088

ICTHPCLRLRLN
protein stability index (Saccharomyces cerevisiae [1]): 0.165 ± 0.0032
protein stability index (Saccharomyces cerevisiae [2]; [3]): 0.517 ± 0.039
protein stability index (Saccharomyces cerevisiae [2]; [4]): 0.662 ± 0.028
protein stability index (Saccharomyces cerevisiae [2]; [5]): 0.634 ± 0.012
protein stability index (Saccharomyces cerevisiae [2]; [6]): 0.732 ± 0.019
protein stability index (Saccharomyces cerevisiae [2]; [7]): 0.0875 ± 0.018
protein stability index (Saccharomyces cerevisiae [2]; [8]): 0.0887 ± 0.016
protein stability index (Saccharomyces cerevisiae [2]; [9]): 0.144 ± 0.055

IDLISRVTVVAR
protein stability index (Saccharomyces cerevisiae [1]): 0.4 ± 0.0047
protein stability index (Saccharomyces cerevisiae [2]; [3]): 0.394 ± 0.02
protein stability index (Saccharomyces cerevisiae [2]; [4]): 0.4267 ± 0.0012
protein stability index (Saccharomyces cerevisiae [2]; [5]): 0.268 ± 0.036
protein stability index (Saccharomyces cerevisiae [2]; [6]): 0.464 ± 0.0081
protein stability index (Saccharomyces cerevisiae [2]; [7]): 0.2236 ± 0.0022
protein stability index (Saccharomyces cerevisiae [2]; [8]): 0.288 ± 0.029
protein stability index (Saccharomyces cerevisiae [2]; [9]): 0.441 ± 0.01

IDLVAFCTIFAL
protein stability index (Saccharomyces cerevisiae [1]): 0.3975 ± 0.0032
protein stability index (Saccharomyces cerevisiae [2]; [3]): 0.4606 ± 0.0013
protein stability index (Saccharomyces cerevisiae [2]; [4]): 0.494 ± 0.032
protein stability index (Saccharomyces cerevisiae [2]; [5]): 0.363 ± 0.03
protein stability index (Saccharomyces cerevisiae [2]; [6]): 0.516 ± 0.01
protein stability index (Saccharomyces cerevisiae [2]; [7]): 0.295 ± 0.0078
protein stability index (Saccharomyces cerevisiae [2]; [8]): 0.33 ± 0.02
protein stability index (Saccharomyces cerevisiae [2]; [9]): 0.469 ± 0.018

IERGLMLTLCVH
protein stability index (Saccharomyces cerevisiae [1]): 0.22 ± 0.014
protein stability index (Saccharomyces cerevisiae [2]; [3]): 0.0536 ± 0.009
protein stability index (Saccharomyces cerevisiae [2]; [4]): 0.0716 ± 0.028
protein stability index (Saccharomyces cerevisiae [2]; [5]): 0.172 ± 0.027
protein stability index (Saccharomyces cerevisiae [2]; [6]): 0.205 ± 0.0033
protein stability index (Saccharomyces cerevisiae [2]; [7]): 0.115 ± 0.013
protein stability index (Saccharomyces cerevisiae [2]; [8]): 0.156 ± 0.024
protein stability index (Saccharomyces cerevisiae [2]; [9]): 0.171 ± 0.0059

IERLRLRTRIIC
protein stability index (Saccharomyces cerevisiae [1]): 0.2349 ± 0.0012
protein stability index (Saccharomyces cerevisiae [2]; [3]): 0.469 ± 0.053
protein stability index (Saccharomyces cerevisiae [2]; [4]): 0.481 ± 0.049
protein stability index (Saccharomyces cerevisiae [2]; [5]): 0.423 ± 0.021
protein stability index (Saccharomyces cerevisiae [2]; [6]): 0.542 ± 0.0096
protein stability index (Saccharomyces cerevisiae [2]; [7]): 0.127 ± 0.015
protein stability index (Saccharomyces cerevisiae [2]; [8]): 0.131 ± 0.036
protein stability index (Saccharomyces cerevisiae [2]; [9]): 0.13441 ± 5e-06

IFIVLDFRCVSS
protein stability index (Saccharomyces cerevisiae [1]): 0.339 ± 0.016
protein stability index (Saccharomyces cerevisiae [2]; [3]): 0.302 ± 0.1
protein stability index (Saccharomyces cerevisiae [2]; [4]): 0.463 ± 0.024
protein stability index (Saccharomyces cerevisiae [2]; [5]): 0.256 ± 0.016
protein stability index (Saccharomyces cerevisiae [2]; [6]): 0.4371 ± 0.0012
protein stability index (Saccharomyces cerevisiae [2]; [7]): 0.243 ± 0.011
protein stability index (Saccharomyces cerevisiae [2]; [8]): 0.242 ± 0.043
protein stability index (Saccharomyces cerevisiae [2]; [9]): 0.381 ± 0.046

IFLLFPFSWRIF
protein stability index (Saccharomyces cerevisiae [1]): 0.446 ± 0.034
protein stability index (Saccharomyces cerevisiae [2]; [3]): 0.596 ± 0.042
protein stability index (Saccharomyces cerevisiae [2]; [4]): 0.6301 ± 0.0061
protein stability index (Saccharomyces cerevisiae [2]; [5]): 0.56 ± 0.039
protein stability index (Saccharomyces cerevisiae [2]; [6]): 0.694 ± 0.011
protein stability index (Saccharomyces cerevisiae [2]; [7]): 0.364 ± 0.027
protein stability index (Saccharomyces cerevisiae [2]; [8]): 0.376 ± 0.033
protein stability index (Saccharomyces cerevisiae [2]; [9]): 0.539 ± 0.036

IFLLLRRIIALS
protein stability index (Saccharomyces cerevisiae [1]): 0.107 ± 0.12
protein stability index (Saccharomyces cerevisiae [2]; [3]): 0.126 ± 0.0094
protein stability index (Saccharomyces cerevisiae [2]; [4]): 0.326 ± 0.044
protein stability index (Saccharomyces cerevisiae [2]; [5]): 0.411 ± 0.047
protein stability index (Saccharomyces cerevisiae [2]; [6]): 0.554 ± 0.023
protein stability index (Saccharomyces cerevisiae [2]; [7]): 0.0418 ± 0.017
protein stability index (Saccharomyces cerevisiae [2]; [8]): 0.0337 ± 0.0068
protein stability index (Saccharomyces cerevisiae [2]; [9]): 0.0499 ± 0.018

IFPSRSLLAASA
protein stability index (Saccharomyces cerevisiae [1]): 0.446 ± 0.0097
protein stability index (Saccharomyces cerevisiae [2]; [3]): 0.403 ± 0.013
protein stability index (Saccharomyces cerevisiae [2]; [4]): 0.457 ± 0.062
protein stability index (Saccharomyces cerevisiae [2]; [5]): 0.339 ± 0.033
protein stability index (Saccharomyces cerevisiae [2]; [6]): 0.5192 ± 0.0019
protein stability index (Saccharomyces cerevisiae [2]; [7]): 0.317 ± 0.016
protein stability index (Saccharomyces cerevisiae [2]; [8]): 0.339 ± 0.025
protein stability index (Saccharomyces cerevisiae [2]; [9]): 0.48 ± 0.028

IFSFRWVLPFWL
protein stability index (Saccharomyces cerevisiae [1]): 0.365 ± 0.098
protein stability index (Saccharomyces cerevisiae [2]; [3]): 0.611 ± 0.059
protein stability index (Saccharomyces cerevisiae [2]; [4]): 0.701 ± 0.008
protein stability index (Saccharomyces cerevisiae [2]; [5]): 0.6 ± 0.026
protein stability index (Saccharomyces cerevisiae [2]; [6]): 0.70093 ± 0.00061
protein stability index (Saccharomyces cerevisiae [2]; [7]): 0.2407 ± 0.00051
protein stability index (Saccharomyces cerevisiae [2]; [8]): 0.256 ± 0.04
protein stability index (Saccharomyces cerevisiae [2]; [9]): 0.424 ± 0.0043

IHCLSIVVHGLS
protein stability index (Saccharomyces cerevisiae [1]): 0.499 ± 0.043
protein stability index (Saccharomyces cerevisiae [2]; [3]): 0.527 ± 0.045
protein stability index (Saccharomyces cerevisiae [2]; [4]): 0.569 ± 0.047
protein stability index (Saccharomyces cerevisiae [2]; [5]): 0.471 ± 0.024
protein stability index (Saccharomyces cerevisiae [2]; [6]): 0.588 ± 0.0099
protein stability index (Saccharomyces cerevisiae [2]; [7]): 0.48 ± 0.016
protein stability index (Saccharomyces cerevisiae [2]; [8]): 0.475 ± 0.019
protein stability index (Saccharomyces cerevisiae [2]; [9]): 0.563 ± 0.027

IHIFIIFRVQWK
protein stability index (Saccharomyces cerevisiae [1]): 0.227 ± 0.012
protein stability index (Saccharomyces cerevisiae [2]; [3]): 0.176 ± 0.064
protein stability index (Saccharomyces cerevisiae [2]; [4]): 0.232 ± 0.036
protein stability index (Saccharomyces cerevisiae [2]; [5]): 0.179 ± 0.025
protein stability index (Saccharomyces cerevisiae [2]; [6]): 0.272 ± 0.018
protein stability index (Saccharomyces cerevisiae [2]; [7]): 0.163 ± 0.0023
protein stability index (Saccharomyces cerevisiae [2]; [8]): 0.156 ± 0.05
protein stability index (Saccharomyces cerevisiae [2]; [9]): 0.249 ± 0.03

IHRSPLTLPLLV
protein stability index (Saccharomyces cerevisiae [1]): 0.468 ± 0.08
protein stability index (Saccharomyces cerevisiae [2]; [3]): 0.526 ± 0.021
protein stability index (Saccharomyces cerevisiae [2]; [4]): 0.584 ± 0.023
protein stability index (Saccharomyces cerevisiae [2]; [5]): 0.461 ± 0.031
protein stability index (Saccharomyces cerevisiae [2]; [6]): 0.5726 ± 0.005
protein stability index (Saccharomyces cerevisiae [2]; [7]): 0.406 ± 0.014
protein stability index (Saccharomyces cerevisiae [2]; [8]): 0.435 ± 0.019
protein stability index (Saccharomyces cerevisiae [2]; [9]): 0.5383 ± 0.0043

IIFCVRVVGGDL
protein stability index (Saccharomyces cerevisiae [1]): 0.46 ± 0.04
protein stability index (Saccharomyces cerevisiae [2]; [3]): 0.449 ± 0.038
protein stability index (Saccharomyces cerevisiae [2]; [4]): 0.508 ± 0.0054
protein stability index (Saccharomyces cerevisiae [2]; [5]): 0.371 ± 0.029
protein stability index (Saccharomyces cerevisiae [2]; [6]): 0.5566 ± 0.00057
protein stability index (Saccharomyces cerevisiae [2]; [7]): 0.332 ± 0.0066
protein stability index (Saccharomyces cerevisiae [2]; [8]): 0.38 ± 0.018
protein stability index (Saccharomyces cerevisiae [2]; [9]): 0.5288 ± 0.0041

IIIRVTILCEQF
protein stability index (Saccharomyces cerevisiae [1]): 0.241 ± 0.0066
protein stability index (Saccharomyces cerevisiae [2]; [3]): 0.135 ± 0.097
protein stability index (Saccharomyces cerevisiae [2]; [4]): 0.176 ± 0.0098
protein stability index (Saccharomyces cerevisiae [2]; [5]): 0.146 ± 0.02
protein stability index (Saccharomyces cerevisiae [2]; [6]): 0.258 ± 0.018
protein stability index (Saccharomyces cerevisiae [2]; [7]): 0.113 ± 0.0089
protein stability index (Saccharomyces cerevisiae [2]; [8]): 0.137 ± 0.0053
protein stability index (Saccharomyces cerevisiae [2]; [9]): 0.212 ± 0.011

IILAIRLLVDTL
protein stability index (Saccharomyces cerevisiae [1]): 0.248 ± 0.021
protein stability index (Saccharomyces cerevisiae [2]; [3]): 0.0479 ± 0.026
protein stability index (Saccharomyces cerevisiae [2]; [4]): 0.179 ± 0.012
protein stability index (Saccharomyces cerevisiae [2]; [5]): 0.146 ± 0.025
protein stability index (Saccharomyces cerevisiae [2]; [6]): 0.266 ± 0.011
protein stability index (Saccharomyces cerevisiae [2]; [7]): 0.12 ± 0.0039
protein stability index (Saccharomyces cerevisiae [2]; [8]): 0.132 ± 0.025
protein stability index (Saccharomyces cerevisiae [2]; [9]): 0.238 ± 0.026

IILRPQYVHYFL
protein stability index (Saccharomyces cerevisiae [1]): 0.454 ± 0.018
protein stability index (Saccharomyces cerevisiae [2]; [3]): 0.532 ± 0.035
protein stability index (Saccharomyces cerevisiae [2]; [4]): 0.594 ± 0.027
protein stability index (Saccharomyces cerevisiae [2]; [5]): 0.497 ± 0.025
protein stability index (Saccharomyces cerevisiae [2]; [6]): 0.5597 ± 0.00026
protein stability index (Saccharomyces cerevisiae [2]; [7]): 0.482 ± 0.023
protein stability index (Saccharomyces cerevisiae [2]; [8]): 0.484 ± 0.025
protein stability index (Saccharomyces cerevisiae [2]; [9]): 0.5457 ± 0.00084

IIVLNIGSVIFC
protein stability index (Saccharomyces cerevisiae [1]): 0.4951 ± 0.0022
protein stability index (Saccharomyces cerevisiae [2]; [3]): 0.456 ± 0.063
protein stability index (Saccharomyces cerevisiae [2]; [4]): 0.5884 ± 0.002
protein stability index (Saccharomyces cerevisiae [2]; [5]): 0.397 ± 0.018
protein stability index (Saccharomyces cerevisiae [2]; [6]): 0.5716 ± 0.0053
protein stability index (Saccharomyces cerevisiae [2]; [7]): 0.387 ± 0.0076
protein stability index (Saccharomyces cerevisiae [2]; [8]): 0.4057 ± 0.0017
protein stability index (Saccharomyces cerevisiae [2]; [9]): 0.549 ± 0.028
